Laboratory results taken from US11702465 (TRIAD NATIONAL SECURITY, dated 2023).

Target: T1, Yersinia pestis F1 antigen, cell-expressed (on Y. pestis cells) (Yersinia pestis, UniProt P26948 22-170)
T1 construct: whole, on cells; also called cell-expressed F1 antigen; F1-positive Y. pestis
Experiment: affinity for cell-expressed F1 antigen (method not given)

T1 sequence (P26948 22-170): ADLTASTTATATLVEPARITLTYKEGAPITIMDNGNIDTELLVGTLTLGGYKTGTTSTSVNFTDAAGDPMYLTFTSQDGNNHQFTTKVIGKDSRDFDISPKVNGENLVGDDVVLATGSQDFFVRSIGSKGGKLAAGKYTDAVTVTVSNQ

B1: AM IgG B (antibody, V domains shown)
VH: QVQLVESGGGLVKPGGSLRLSCAASGFTFSDYYMSWIRQAPGKGLEWVSYISGSGSIIYYADSVKGRFTISRDNAKNSLYLQMNSLRAEDTAVYYCAKEIRKHDAFDIWGQGTMVTVSS
VL: DIRMTQSPSSLSASVGDRVTITCRASRSISGYLNWYQQKPGKAPKLLIYATSSLQSGVPSRFSGSGSGTDFTLTISSLQPEDFATYYCQQSYSTPSSFGQGTKVDIKR
notes: also called AM^a IgG B
Kd: 0.09 nM

B2: AM IgG H (antibody, V domains shown)
VH: QVQLQQWGAGLLKPSETLSLTCAVYGGSFSGYYWSWIRQPPGKGLEWIGEINRSGNTNYNPSLKSRVTISVDTSKNQFSLQLNSVTPEDTAVYYCARTRGYFDLWGRGTLVTVSS
VL: QPVLTQSPSVSVSPGQTASITCSGDKLGGRYASWYQQKPGQSPVLVIYQDTKRPSGIPERFSGSNSGNTATLTISGTQAMDEADYYCQSWDSSAAVFGTGTKLTVLG
notes: also called AM^a IgG H
Kd: 0.03 nM
